Reference: the RNAGym collection of RNA variant scans (doi:10.7554/elife.90254)

B1: OR4K15 (parent)
chain: GUUAACGGUCAUAGGCCAUGGAAACUAGGAGCACCAUUUCGCUGCCAGUGAAGAAAUGAACAAAGAAAAUCUGGGCCAGGCAGGCAUCAAAAGAAAUAGUCUUGCGCUCAACCAGAAAGUCUGUAAUCAUUUUAAGGGUA

Variants of: B1
Assay: self-cleavage, relative activity (ratio to wild type); higher = more cleavage; in vitro, sequencing; the parent is a self-cleaving ribozyme

Variant | self-cleavage
GUUAACGGUCAUAGGCCAUGGAAACUAGGAGCACCACUACGCUGCCAGUGAAGAAAUGAACAAAGAAAAUCUGGGCCAGGCAGGCAUCAAAAGAAAUAGUCUUGCGCUCAACCAGAAAGUCUGUAAUCAUUUUAAGGGUA | 1.55
GUUAACGGUCAUAGGCCAUGGAAACUAGGAGCACCACUUCGCUGCCAGUGAAGAAAUGAACAAAGAAAAUCUGGGCCAGGCAGGCAACAAAAGAAAUAGUCUUGCGCUCAACCAGAAAGUCUGUAAUCAUUUUAAGGGUA | 1.49
GUUAACGGUCAUAGGCCAUGGAAACUAGGAGCACCACUUCGCCGCCAGUGAAGAAAUGAACAAAGAAAAUCUGGGCCAGGCAGGCAUCAAAAGAAAUAGUCUUGCGCUCAACCAGAAAGUCUGUAAUCAUUUUAAGGGUA | 2.16
GUUAACGGUCAUAGGCCAUGGAAACUAGGAGCACCACUUCGCGGCCAGUGAAGAAAUGAACAAAGAAAAUCUGGGCCAGGCAGGCAUCAAAAGAAAUAGUCUUGCGCUCAACCAGAAAGUCUGUAAUCAUUUUAAGGGUA | 1.46
GUUAACGGUCAUAGGCCAUGGAAACUAGGAGCACCACUUCGCUGCCAGUGAAGAAAUGAACAAAGAAAAUCUGGGCCAGGCAGGCAUCAAAAGAAAUAGCCUUGCGCUCAACCAGAAAGUCUGUAAUCAUUUUAAGGGUA | 1.67
GUUAACGGUCAUAGGCCAUGGAAACUAGGAGCACCACUUCGCUGCCAGUGAAGAAAUGAACAAAGAAAAUCUGGGCCAGGCAGGCAUCAAAAGAAAUAGACUUGCGCUCAACCAGAAAGUCUGUAAUCAUUUUAAGGGUA | 0.52
GUUAACGGUCAUAGGCCAUGGAAACUAGGAGCACCACUUCGCUGCCAGUGAAGAAAUGAACAAAGAAAAUCUGGGCCAGGCAGGCAUCAAAAGAAAUAGUCUAGCGCUCAACCAGAAAGUCUGUAAUCAUUUUAAGGGUA | 0.5
GUUAACGGUCAUAGGCCAUGGAAACUAGGAGCACCACUUCGCUGCCAGUGAAGAAAUGAACAAAGAAAAUCUGGGCCAGGCAGGCAUCAAAAGAAAUAGUCUGGCGCUCAACCAGAAAGUCUGUAAUCAUUUUAAGGGUA | 0.02
GUUAACGGUCAUAGGCCAUGGAAACUAGGAGCACCACUUCGCUGCCAGUGAAGAAAUGAACAAAGAAAAUCUGGGCCAGGCAGGCAUCAAAAGAAAUAGUCUCGCGCUCAACCAGAAAGUCUGUAAUCAUUUUAAGGGUA | 0.32
GUUAACGGUCAUAGGCCAUGGAAACUAGGAGCACCACUUCGCUGCCAGUGAAGAAAAGAACAAAGAAAAUCUGGGCCAGGCAGGCAUCAAAAGAAAUAGUCUUGCGCUCAACCAGAAAGUCUGUAAUCAUUUUAAGGGUA | 0.99
GUUAACGGUCAUAGGCCAUGGAAACUAGGAGCACCACUUCGCUGCCAGUGAAGAAAGGAACAAAGAAAAUCUGGGCCAGGCAGGCAUCAAAAGAAAUAGUCUUGCGCUCAACCAGAAAGUCUGUAAUCAUUUUAAGGGUA | 0.5
GUUAACGGUCAUAGGCCAUGGAAACUAGGAGCACCACUUCGCUGCCAGUGAAGAAAUGAACAAAGAAAAUCUGGGCCAGGCAGGCAUCAAAAUAAAUAGUCUUGCGCUCAACCAGAAAGUCUGUAAUCAUUUUAAGGGUA | 1.07
GUUAACGGUCAUAGGCCAUGGAAACUAGGAGCACCACUUCGCUGCCAGUGAAGAAAUGAACAAAGAAAAUCUGGGCCAGGCAGGCAUCAAAAGAAAUAGUCUUGCGCUCAACCAGAAAGUCUGUAAUCAUUUUAAGAGUA | 1.64
GUUAACGGUCAUAGGCCAUGGAAACUAGGAGCACCACUUCGCUGCCAGUGAAGAAAUGAACAAAGAAAAUCUGAGCCAGGCAGGCAUCAAAAGAAAUAGUCUUGCGCUCAACCAGAAAGUCUGUAAUCAUUUUAAGGGUA | 0.31
GUUAACGGUCAUAGGCCAUGGAAACUAGGAGCACCACUUCGCUGCCAGUGAAGAAAUGAACAAAGAAAACCUGGGCCAGGCAGGCAUCAAAAGAAAUAGUCUUGCGCUCAACCAGAAAGUCUGUAAUCAUUUUAAGGGUA | 0.2
GUUAACGGUCAUAGGCCAUGGAAACUAGGAGCACCACUUCGCUGCCAGUGAAGAAAUGAACAAAGAAAAUCUGGGCCAGGCAGGCAUCAAAAGAAAUAGUCUUGCGCUCAACCAGAAAGUCUGUAAUCAUUUUAAUGGUA | 1.97
GUUAACGGUCAUAGGCCAUGGAAACUAGGAGCACCACUUCGCUGCCAGUGAAGAAAUGAACAAAGAAAAUCUGGGCCAGACAGGCAUCAAAAGAAAUAGUCUUGCGCUCAACCAGAAAGUCUGUAAUCAUUUUAAGGGUA | 0.21
GUUAACGGUCAUAGGCCAUGGAAACUAGGAGCACCACUUCGCUGCCAGUGAAGAAAUGAACAAAGAAAAUCCGGGCCAGGCAGGCAUCAAAAGAAAUAGUCUUGCGCUCAACCAGAAAGUCUGUAAUCAUUUUAAGGGUA | 0.26
GUUAACGGUCAUAGGCCAUGGAAACUAGGAGCACCACUUCGCUGCCAGUGAAGAAAUGAACAAAGAAAAUCAGGGCCAGGCAGGCAUCAAAAGAAAUAGUCUUGCGCUCAACCAGAAAGUCUGUAAUCAUUUUAAGGGUA | 0.51
GUUAACGGUCAUAGGCCAUGGAAACUAGGAGCACCACUUCGCUGCCAGUGAAGAAAUGAACAAAGAAAAUCUGGGCCAGGCAGGCAUCAAAAGAAAUAGUCAUGCGCUCAACCAGAAAGUCUGUAAUCAUUUUAAGGGUA | 1.05
GUUAACGGUCAUAGGCCAUGGAAACUAGGAGCACCACUUCUCUGCCAGUGAAGAAAUGAACAAAGAAAAUCUGGGCCAGGCAGGCAUCAAAAGAAAUAGUCUUGCGCUCAACCAGAAAGUCUGUAAUCAUUUUAAGGGUA | 1.04
